The text below walks through data of patent US20190382483A1 (OSE IMMUNOTHERAPEUTICS, published 2019).

The target of assay [1] is T1, SIRPa variant 1 on human monocytes (homozygote v1/v1) (human, UniProt P78324 31-504).
T1 construct: the target on the cells is SIRPa v1; also called human monocytes v1/v1; SIRPa v1
The assay is described as follows: flow cytometry on human monocytes (SIRPa v1/v1). How it is done: FIG. 7. Binding analysis of antibodies on human monocytes (homozygote for SIRPa variant 1 (v1/v1)). […] Revelation was performed with a PE labeled mouse anti-human Fc mAb on CantoII cytometer, values corresponding to percentage of stained monocytes.

Assay [2] addresses T2, Recombinant hSIRPg-His (Sino Biologicals, reference 11828-H08H) (human, UniProt Q9P1W8 29-360).
T2 construct: Bought recombinant protein; also called human SIRPg recombinant protein; not shown: histidine tail
The assay is described as follows: Blitz, hSIRPg-His on Ni-NTA biosensor. As for the experimental part:
This method was performed with a Blitz (Forté Bio; USA; reference C22-2 No 61010-1). Recombinant hSIRPg-His (Sino Biologicals, Beijing, China; reference 11828-H08H) was immobilized at 10 μg/ml by histidine tail into a Ni-NTA biosensor (Forte Bio; USA; reference 18-0029) for 30 seconds. Then, an antibody was associated at 20 μg/mL for 120 seconds. The dissociation of antibody was made in kinetics buffer for 120 seconds. Analysis of data was made with the Blitz pro 1.2 software, which calculated association constant (ka) and dissociation constant (kd) and determined the affinity constant KD […].

T2 sequence (Q9P1W8 29-360): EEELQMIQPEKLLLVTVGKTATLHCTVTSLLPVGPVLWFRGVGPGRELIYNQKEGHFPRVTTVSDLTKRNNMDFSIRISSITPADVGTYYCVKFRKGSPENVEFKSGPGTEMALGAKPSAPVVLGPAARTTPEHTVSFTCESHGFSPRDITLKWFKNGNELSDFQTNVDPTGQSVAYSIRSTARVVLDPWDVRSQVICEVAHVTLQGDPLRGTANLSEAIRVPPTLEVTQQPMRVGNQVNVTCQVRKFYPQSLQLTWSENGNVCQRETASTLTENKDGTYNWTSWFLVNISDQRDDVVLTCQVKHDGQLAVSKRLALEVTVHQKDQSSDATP
T1 sequence (P78324 31-504 limits assumed, change not shown): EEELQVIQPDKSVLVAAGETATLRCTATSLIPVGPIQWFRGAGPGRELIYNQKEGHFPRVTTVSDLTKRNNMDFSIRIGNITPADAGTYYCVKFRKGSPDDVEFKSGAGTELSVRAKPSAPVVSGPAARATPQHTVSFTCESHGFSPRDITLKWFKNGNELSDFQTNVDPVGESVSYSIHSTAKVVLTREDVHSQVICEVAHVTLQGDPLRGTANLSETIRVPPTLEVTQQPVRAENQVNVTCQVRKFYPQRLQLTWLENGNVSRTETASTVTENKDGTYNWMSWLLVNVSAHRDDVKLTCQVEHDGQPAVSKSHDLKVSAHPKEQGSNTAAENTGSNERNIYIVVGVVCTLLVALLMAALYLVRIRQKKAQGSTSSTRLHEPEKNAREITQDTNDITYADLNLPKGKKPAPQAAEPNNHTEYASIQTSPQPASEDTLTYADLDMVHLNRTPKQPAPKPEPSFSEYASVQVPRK

B1: Kwar23 (antibody, V domains shown)
VH: EVQLQQSGAELVKPGASVKLSCTASGFNIKDYYIHWVQQRTEQGLEWIGRIDPEDGETKYAPKFQDKATITADTSSNTAYLHLSSLTSEDTAVYYCARWGAYWGQGTLVTVSS
VL: QIVLTQSPAIMSASPGEKVTLTCSASSSVSSSYLYWYQQKPGSSPKLWIYSTSNLASGVPARFSGSGSGTSYSLTISSMEAEDAASYFCHQWSSYPRTFGAGTKLELK
notes: Commercial antibody (Creative Biolabs, Cat. No TAB-453CT); also called TAB-453CT (Creative Biolabs)
Regarding B1, the binding result in assay [1] and in assay [2] was “binds” in each case.
